Test results as given in the supplement of paper PMC9170038.

Tested on: MS2 coat protein
Test: apparent KD of MS2 coat protein; designed switch direction (-1 OFF switch, 1 ON switch): -1; higher = weaker reporter binding
Outline: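 Designed RNA switches were transcribed on Illumina chips by stalled E. coli RNA polymerase and titrated with SNAP-549-labelled MS2 coat protein from 0.7 or 1.5 nM, doubling to 3 µM. Step length ran from 0.8–1.5 h at the lowest concentration to 10–20 min at the highest. The apparent KD is the median over clusters for each design, from curve-fitted normalised cluster fluorescence.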

[1] = input ligand: microRNA oligo, concentration not stated
[2] = Eterna round: R95, input ligand: FMN 200 uM
[3] = Eterna round: R95, input ligand: microRNA oligo, concentration not stated
[4] = Eterna round: R95, input ligand: none

Sequence | apparent KD of MS2 coat protein (input ligand: FMN 200 uM) [µM] | apparent KD of MS2 coat protein (input ligand: none) [µM] | apparent KD of MS2 coat protein [3] [µM] | also measured
AAAGGACGAGGAUAUACAUGAGGAUCACCCAUGUAAGAAGCAUAAUAAAAUAACUUAUGUAGAAGGCGUCCAAA [Mat - Exclusion 3 - Eli mod - D94] (Eterna round: R96, puzzle: Exclusion 3) | – | – | – | apparent KD of MS2 coat protein [1]: 0.017 µM
CAGCUGAAAGUGAGGAUAUCUAGAGCCUCGGCUCUAGAGAAGGCACAUGAGGAUCACCCAUGUCUCAACAGCUG [BmEx4/1-A2] (Eterna round: R97, puzzle: Brourd's mod of Exclusion 4) | 0.0671 | 0.0196 | – | –
AAAAAGCUAGGAUAUACAUGAGGAUCACCCAUGUGAGGGCACCGCGGGCGCGGGACCGGUAGAAGGAGCAAAAA [Exc;s3-III] (puzzle: Exclusion 3) | – | – | 0.0249 | apparent KD of MS2 coat protein [2]: 0.0235 µM; apparent KD of MS2 coat protein [4]: 0.0291 µM
CUUAGACAUGAGGAUCACCCAUGUGAGGAUAUGAUGCGAAUGAAGAAAGAAGGAAGCAUCAGAAGGCACAUAUG [Mat - Mod of Hyphema D26] (puzzle: Exclusion 1) | – | – | 0.163 | apparent KD of MS2 coat protein [2]: 0.323 µM; apparent KD of MS2 coat protein [4]: 0.143 µM
UUUUUACAUGAGGAUCACCCAUGUCAGGAUAUGUUUAUAUUUUAUUAUUUUAUUUUUUACAGAAGGGACUAUUA [My solution] (puzzle: Exclusion 1) | – | – | 0.123 | –
UUUUAGCAAGCGAGAAUUAACAUGAGGAUCACCCAUGUGCAUCCAGAAUUACUUUUAGAACAAGCUCGUCUUAUAUA [JR_STOV1_v2_Sub081] (Eterna round: R97, puzzle: Sensor, turn-off variant 1) | 0.353 | 0.401 | – | –
CUGGUCCGAGGAUAUAUUAUGUGAUACAUGAGGAUCACCCAUGUUAUAUGAUGGAAAUAAAUAGAAGGCGGACUAG [Mat - Exclusion 5 - JL mod - D67] (puzzle: Exclusion 5) | – | – | 0.0705 | apparent KD of MS2 coat protein [2]: 0.079 µM; apparent KD of MS2 coat protein [4]: 0.069 µM
UAUCGGCGGACCGAGGCUUUUUGCUCGUCUUAUGCUACAACAUGAGGAUCACCCAUGUGGUGGUGGUCCGUUGUAGU [JL ViennaUCT Bitein mod 9] (puzzle: Sensor v3, turn-off variant 2) | – | – | 0.0135 | apparent KD of MS2 coat protein [2]: 0.0197 µM; apparent KD of MS2 coat protein [4]: 0.0318 µM
AACAAGCUUUAAAGAUCCCACAUGAGGAUCACCCAUGUGCUCGUCUUAUAACGUACUGUGACGAAAGUCACGGUACG [JL TOV1 3.25] (Eterna round: R97, puzzle: Sensor, turn-off variant 1) | 0.0277 | 0.0374 | – | –
CCUCAUAGUCAGGAUAUCAGCGCGUUCGGCAAAUGAGAAGGGACCACAUGAGGAUCACCCAUGUAAAACCAAAA [Beencema] (Eterna round: R97, puzzle: Exclusion 6) | 0.0441 | 0.036 | – | –
CUGGUCUAUGUAGGAUAUGGUGUAUAUGUAUUACCAGAAGGACAUGAGGAUCACCCAUGUGUCGUGGUAUGAGUAGGUGAUGUU [Random] (Eterna round: R96, puzzle: Exclusion NG 1) | – | – | – | apparent KD of MS2 coat protein [1]: 0.0402 µM
CAGUACUGAGGAUAUACAUGAGGAUCACCCAUGUGCUUCAGCUAGGAUACUAGCAUUAGUAGAAGGCAGUACUG [Fiskers Ex 3 828 mod 13] (puzzle: Exclusion 3) | – | – | 0.0113 | –
ACAAGCUUUGUUGUGGGUGACAUGAGGAUCACCCAUGUUUGCCACGUCUUGUGGGCCCGGGCCCGCGGCCCGGGCCC [-42.9, -63.9, A 13%] (Eterna round: R97, puzzle: Sensor, turn-off variant 1) | 0.0503 | 0.0551 | – | –
ACUUACUGAGGAUAUACUUAGAUUUACAUGAGGAUCACCCAUGUUCCUCUAUGUAUAUAUGUAGAAGGCAGAAGUA [Mat - Exclusion 5 - JL Mod - D50] (Eterna round: R97, puzzle: Exclusion 5) | 0.252 | 0.038 | – | –
CCGCCAUGAGGAUAUUAGUAGUAGUCAGAAAAGACUAUUACUGAGAAGGCACAUGAGGAUCACCCAUGUAGCGG [Mat - Exclusion 4 - Eli Mod - D50] (Eterna round: R97, puzzle: Exclusion 4) | 0.0188 | 0.041 | – | –
GACCAGGAAGGAUAUACAUACGGUUCGUGCCUUGGGCUGCGACAUGAGGAUCACCCAUGUAGAAGGUCCAGGUC [EX2 B.18] (Eterna round: R97, puzzle: Exclusion 2) | 0.0471 | 0.0186 | – | –
UACACCGCAUGAGGAUCAAACAUGAGGAUCACCCAUGUGUAGCAAGCUUUUUGCUCGUCUUAUAAAUAUGUGGUGUA [Electric Eye 9 - Jieux - Sensor, turn-off variant 1] (Eterna round: R97, puzzle: Sensor, turn-off variant 1) | 0.0126 | 0.013 | – | –
UUUUAACAUGAGGAUCACCCAUGUGAGGAUAUCGAAAUUUAUAUUUAUAUUAAUUAAUCGAGAAGGCACAUUUU [JMF 84] (puzzle: Exclusion 1) | – | – | 0.15 | –

Sequence | apparent KD of MS2 coat protein (input ligand: FMN 200 uM) [µM] | apparent KD of MS2 coat protein (input ligand: none) [µM] | apparent KD of MS2 coat protein [3] [µM] | also measured
GAAAACGAAGAGGAUAUAUGAUAUCAAAGCUUCAUAGAAGGCUUCACAUGAGGAUCACCCAUGUGAUCUUCAAA [jl-ex6-4.07 ViennaUCT mod] (Eterna round: R97, puzzle: Exclusion 6) | 0.262 | 0.0379 | – | –
GCACGGAGUGUAGGAUAUCUGUGCGAUUAGCUCAGAGAAGGACACAUGAGGAUCACCCAUGUGUUCCACGGAAACGUACCGUGC [Eli exng1 - 050] (Eterna round: R96, puzzle: Exclusion NG 1) | 0.0112 | 0.0125 | – | apparent KD of MS2 coat protein [1]: 0.00887 µM
AACUGGACAGGAUAUGUACUUGAGCACUUGAGGAUCACCCAAGUCAUCAAGUACUCAGGCACAGAAGGGUUUAUUU [jl-ex5.4.69 ViennaUCT mod] (Eterna round: R97, puzzle: Exclusion 5) | 0.311 | 0.2 | – | –
UUAUUAUAUGUAGGAUAUGCAUAUUGUUGUUAUGCAGAAGGACAUGAGGAUCACCCAUGUGUAUUAUUGUUAUAUAUUAUAUAU [Title] (Eterna round: R96, puzzle: Exclusion NG 1) | – | – | – | apparent KD of MS2 coat protein [1]: 0.0165 µM
GCUAAGAGUGUGAGGAUAUGCUGGUCCUUGGAUCAGCAGAAGGCACAUGAGGAUCACCCAUGUGAAAACUUAGC [Mat - Exclusion 4 - JL Mod - D64] (puzzle: Brourd's mod of Exclusion 4) | – | – | 0.0199 | –
GCGCACUAAGUGAGGAUAUCGUUUAUUUAUAGGAUCGAGAAGGCACAUGAGGAUCACCCAUGUUAAACGUGCGC [JR_BMOE4_Sub100] (puzzle: Brourd's mod of Exclusion 4) | – | – | 0.0157 | –
ACUAGAUGAGGAUAUGCAUAUUUUCGUGUUCUUCUAGAUUAACAUGAGGAUCACCCAUGUAGAAGGCGUCUGGA [Exclusion 2 - 18] (puzzle: Exclusion 2) | – | – | 0.0176 | –
UACCUGAGGCAAAGCUUUAGGUAUACAUGAGGAUCACCCAUGUAGGAUAUGGUAGGCUUUGCUUACCAGAAGGACAUGUUAAUU [Mat - Exclusion NG 3 - Mod of JL - D32] (Eterna round: R96, puzzle: Exclusion NG 3) | 0.161 | 0.0396 | – | apparent KD of MS2 coat protein [1]: 0.0304 µM
GGAUAUAACGUAGGAUAUCUGAGAAAUAGAUGAAGAGAAGGACGACAUGAGGAUCACCCAUGUGAUCUAUCAAUAUUAUACAUG [Prohibition 100 - Jieux - Exclusion NG 1] (Eterna round: R96, puzzle: Exclusion NG 1) | – | – | – | apparent KD of MS2 coat protein [1]: 0.332 µM
UUUUUAAAUGAAGGAUAUACUUAACAUGAGGAUCACCCAUGUGGUGUUGUGAGUGAGUGAGUUUAGUAGAAGGUCAAUUCUUUU [JMF's solution 86] (Eterna round: R96, puzzle: Exclusion NG 2) | 0.619 | 0.334 | – | apparent KD of MS2 coat protein [1]: 0.3 µM
GGAUCGAGUGUGAGGAUAUACCUAUGGAUACAUAGGUAGAAGGCACAUGAGGAUCACCCAUGUUCCUACGGUCC [Eli bmx4 4.08] (Eterna round: R97, puzzle: Brourd's mod of Exclusion 4) | 0.713 | 0.0623 | – | –
AACUAGUCAGGAUAUACGAACAUGUCAAAAAACAUGAAGGGACAUGAGGAUCACCCAUGUAGAAGGGACUAGCA [74%, Web mod - With 3 less G's] (Eterna round: R96, puzzle: Exclusion 2) | – | – | – | apparent KD of MS2 coat protein [1]: 0.0293 µM
AGUGCUAACACGAAAGUGUUAGUACAAUAAGCUUGUGAAACAUGAGGAUCACCCAUGUCCUCAUAAGCUCGUCUUAU [salish99_TOv2_r3_014] (puzzle: Sensor v3, turn-off variant 2) | – | – | 0.651 | apparent KD of MS2 coat protein [2]: 0.0178 µM; apparent KD of MS2 coat protein [4]: 0.0177 µM
AGGUGUAGAGGAUAUACUGCAAAGCACAUGAGGAUCACCCAUGUCCCUCUAUGAAAUUAAGUAGAAGGCUACACCA [Omei Ex5 C5] (Eterna round: R97, puzzle: Exclusion 5) | 0.0886 | 0.0771 | – | –
GUAGAGUAAGGAUAUGUUGAAUAGGAUAGAAUGGUUAGAAAACAGAAGGUACAUGAGGAUCACCCAUGUAAUGU [Excluse me!!!! 11 - Jieux - Exclusion 4] (puzzle: Exclusion 4) | – | – | 0.0191 | apparent KD of MS2 coat protein [2]: 0.02 µM; apparent KD of MS2 coat protein [4]: 0.0176 µM
AGCCUACAUGAGGAUCACCCAUGUCAGGAUAUCUCGCGACAUGUCAAGUUCACGUUGCAGAGAAGGGACUCGGG [Ononxe] (Eterna round: R96, puzzle: Exclusion 1) | 0.108 | 0.0541 | – | apparent KD of MS2 coat protein [1]: 0.041 µM
CCUCUACAUGAGGAUCACCCAUGUGAGGAUAUCUCGGAGCAGCCUAUUAAGGCGCUCCAGAGAAGGCACGUGUA [Dizasoorce] (puzzle: Exclusion 1) | – | – | 0.0179 | –
